This note sets out measurements from article PMC4770236.

Data set [1] addresses TRFH domain of TRF2 (TRF2 dimerization domain) (human). The data set can be described thus: ITC.
Data set [2] concerns the target TRF2 (Telomeric Repeat-binding Factor 2), full length (human). The data set can be described thus: ITC.
For data set [3] the target is unchanged. The data set can be described thus: SEC-MALS + ITC.
Data set [4] shares this target. The data set is described as follows: SAXS.
A further data set concerns the target T1, RAP1 (human, UniProt Q9NYB0 1-399).
T1 sequence: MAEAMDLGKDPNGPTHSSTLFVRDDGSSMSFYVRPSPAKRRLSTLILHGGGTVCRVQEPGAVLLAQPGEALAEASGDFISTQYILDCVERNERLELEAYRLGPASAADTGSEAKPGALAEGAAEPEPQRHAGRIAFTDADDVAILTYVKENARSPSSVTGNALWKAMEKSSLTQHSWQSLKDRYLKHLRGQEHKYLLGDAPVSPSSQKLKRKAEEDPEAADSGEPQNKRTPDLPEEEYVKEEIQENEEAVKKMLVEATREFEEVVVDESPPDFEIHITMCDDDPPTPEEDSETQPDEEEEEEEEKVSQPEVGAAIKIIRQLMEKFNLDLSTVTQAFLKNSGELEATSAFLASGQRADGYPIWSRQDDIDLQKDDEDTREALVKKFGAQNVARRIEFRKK
The data set can be described thus: ITC. In general terms: In ITC the heat of successive injections is recorded.

The target in data set [5] is TRF2 (Telomeric Repeat-binding Factor 2), full length (human). The data set can be described thus: ITC. This is another data set of the same source.

For orientation: Kd means a measure of binding affinity in units of concentration. The low end stands for tighter binding, the high end for weaker binding. As to “Apollo-YLP peptide (Apollo residues 494-511)”, the values for the dissociation constant (Kd) in data set [1] and in data set [2] were 59 nM and 46 nM, respectively.

The term stoichiometry N denotes the number of molecules, sites or subunits per partner or assembly. Take “TRF2 (Telomeric Repeat-binding Factor 2), full length (natural protein)”: the stoichiometry N in data set [3] and in data set [4] was 2 each time.

B1: T2-S1-S2 (T2AG3 duplex) (dsDNA)
DNA 1: CTAGGGTTAGGGTTAG
DNA 2: CTAACCCTAACCCTAG
As for B1, in the data set with RAP1, the binding result is “no binding”.

B2: RAP1 (Repressor Activator Protein 1), full length (natural protein)
chain: T1 sequence
With B2, in data set [5], the KD of the high affinity site (two-independent sites model) was less than 1 nM and the KD of the lower affinity site (two-independent sites model) is 500 nM.
